Results reported in patent US20230331817A1 (The Regents of the University of California, priority 2020, published 2023).
Where no end group is shown, it is not given here.

Assays:
plasmin kringle domain = plasmin kringle domain (UniProt P00747); assay: not stated (SPR implied)
human plasmin [1] = molecular target: T1, human plasmin (human, UniProt P00747 97-810); assay: cell-based or functional assay
human plasmin [2] = molecular target: T1, human plasmin; assay: plasmin amidolytic inhibition, slow tight binding equation
Procedure: (§1) Reactions were carried out in TBS/BSA and 2 mM calcium. […] Synthetic substrate for plasmin was then added to a final concentration of 1 KM, and residual amidolytic activity was measured in a kinetic microplate reader (Molecular Devices). […] Data are analyzed using an equation for a tight-binding inhibitor and Kᵢ values are obtained by correcting for the effect of substrate concentration.

plasma kallikrein [3] = molecular target: T2, plasma kallikrein (human, UniProt P03952 20-638); assay: protease amidolytic inhibition, tight-binding equation
T2 construct: also called pKLK; KLK
T2 sequence (P03952 20-638 limits assumed): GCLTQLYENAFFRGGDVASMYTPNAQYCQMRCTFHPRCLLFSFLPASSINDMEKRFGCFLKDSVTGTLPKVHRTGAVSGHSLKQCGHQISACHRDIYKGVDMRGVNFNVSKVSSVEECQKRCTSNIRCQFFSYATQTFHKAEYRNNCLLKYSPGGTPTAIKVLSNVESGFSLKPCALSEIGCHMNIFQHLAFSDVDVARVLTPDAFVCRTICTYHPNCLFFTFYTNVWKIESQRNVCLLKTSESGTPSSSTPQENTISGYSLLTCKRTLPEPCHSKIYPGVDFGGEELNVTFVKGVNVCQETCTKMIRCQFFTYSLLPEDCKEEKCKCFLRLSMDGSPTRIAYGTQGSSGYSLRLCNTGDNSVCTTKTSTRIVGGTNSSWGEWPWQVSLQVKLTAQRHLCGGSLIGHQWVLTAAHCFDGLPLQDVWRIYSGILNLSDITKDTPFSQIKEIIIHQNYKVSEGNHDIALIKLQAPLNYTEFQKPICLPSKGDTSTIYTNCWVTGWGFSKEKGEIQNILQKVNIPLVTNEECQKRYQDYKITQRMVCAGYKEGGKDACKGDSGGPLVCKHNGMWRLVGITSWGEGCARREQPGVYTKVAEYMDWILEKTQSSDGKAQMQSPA

human plasmin [4] = molecular target: T1, human plasmin; assay: as above
human plasmin [5] = molecular target: T1, human plasmin; assay: plasmin amidolytic inhibition, sample kept at 4° C., Day 1
Procedure: as §1

human plasmin [6] = molecular target: T1, human plasmin; assay: plasmin amidolytic inhibition, sample kept at 4° C., Day 2
Procedure: as §1

human plasmin [7] = molecular target: T1, human plasmin; assay: plasmin amidolytic inhibition, sample kept at 4° C., Day 3
Procedure: as §1

human plasmin [8] = molecular target: T1, human plasmin; assay: plasmin amidolytic inhibition, sample kept at 4° C., Day 4
Procedure: as §1

human plasmin [9] = molecular target: T1, human plasmin; assay: plasmin amidolytic inhibition, sample kept at 4° C., Day 5
Procedure: as §1

human plasmin [10] = molecular target: T1, human plasmin; assay: plasmin amidolytic inhibition, sample kept at 4° C., Day 6
Procedure: as §1

human plasmin [11] = molecular target: T1, human plasmin; assay: plasmin amidolytic inhibition, sample kept at 4° C., Day 7
Procedure: as §1

human plasmin [12] = molecular target: T1, human plasmin; assay: plasmin amidolytic inhibition, sample kept at 37° C., Day 1
Procedure: as §1

human plasmin [13] = molecular target: T1, human plasmin; assay: plasmin amidolytic inhibition, sample kept at 37° C., Day 2
Procedure: as §1

human plasmin [14] = molecular target: T1, human plasmin; assay: plasmin amidolytic inhibition, sample kept at 37° C., Day 3
Procedure: as §1

human plasmin [15] = molecular target: T1, human plasmin; assay: plasmin amidolytic inhibition, sample kept at 37° C., Day 4
Procedure: as §1

human plasmin [16] = molecular target: T1, human plasmin; assay: plasmin amidolytic inhibition, sample kept at 37° C., Day 5
Procedure: as §1

human plasmin [17] = molecular target: T1, human plasmin; assay: plasmin amidolytic inhibition, sample kept at 37° C., Day 6
Procedure: as §1

human plasmin [18] = molecular target: T1, human plasmin; assay: plasmin amidolytic inhibition, sample kept at 37° C., Day 7
Procedure: as §1

human plasmin [19] = molecular target: T1, human plasmin; assay: plasmin amidolytic inhibition, sample kept at room temperature, Day 1
Procedure: as §1

human plasmin [20] = molecular target: T1, human plasmin; assay: plasmin amidolytic inhibition, sample kept at room temperature, Day 2
Procedure: as §1

human plasmin [21] = molecular target: T1, human plasmin; assay: plasmin amidolytic inhibition, sample kept at room temperature, Day 3
Procedure: as §1

human plasmin [22] = molecular target: T1, human plasmin; assay: plasmin amidolytic inhibition, sample kept at room temperature, Day 4
Procedure: as §1

human plasmin [23] = molecular target: T1, human plasmin; assay: plasmin amidolytic inhibition, sample kept at room temperature, Day 5
Procedure: as §1

human plasmin [24] = molecular target: T1, human plasmin; assay: plasmin amidolytic inhibition, sample kept at room temperature, Day 6
Procedure: as §1

human plasmin [25] = molecular target: T1, human plasmin; assay: plasmin amidolytic inhibition, sample kept at room temperature, Day 7
Procedure: as §1

plasma kallikrein [26] = molecular target: T2, plasma kallikrein; assay: protease amidolytic inhibition, against the 60 residue double mutant Y11T/L17R
factor XIa = molecular target: T3, factor XIa (human, UniProt P03951 19-625); assay: as above
T3 construct: also called FXIa

[27] = molecular target: T4, factor VIIa/soluble tissue factor (human, UniProt P08709 61-466; P13726 33-251); assay: as above
T4 construct: Complex of the enzyme FVIIa and its cofactor sTF, used at 20 nM; also called FVIIa/sTF; factor VIIa/tissue factor

human plasmin [28] = molecular target: T1, human plasmin; assay: residual amidolytic activity of 3 nM human plasmin after incubation with the inhibitor (chromogenic substrate)

T1 sequence (P00747 97-810 limits assumed): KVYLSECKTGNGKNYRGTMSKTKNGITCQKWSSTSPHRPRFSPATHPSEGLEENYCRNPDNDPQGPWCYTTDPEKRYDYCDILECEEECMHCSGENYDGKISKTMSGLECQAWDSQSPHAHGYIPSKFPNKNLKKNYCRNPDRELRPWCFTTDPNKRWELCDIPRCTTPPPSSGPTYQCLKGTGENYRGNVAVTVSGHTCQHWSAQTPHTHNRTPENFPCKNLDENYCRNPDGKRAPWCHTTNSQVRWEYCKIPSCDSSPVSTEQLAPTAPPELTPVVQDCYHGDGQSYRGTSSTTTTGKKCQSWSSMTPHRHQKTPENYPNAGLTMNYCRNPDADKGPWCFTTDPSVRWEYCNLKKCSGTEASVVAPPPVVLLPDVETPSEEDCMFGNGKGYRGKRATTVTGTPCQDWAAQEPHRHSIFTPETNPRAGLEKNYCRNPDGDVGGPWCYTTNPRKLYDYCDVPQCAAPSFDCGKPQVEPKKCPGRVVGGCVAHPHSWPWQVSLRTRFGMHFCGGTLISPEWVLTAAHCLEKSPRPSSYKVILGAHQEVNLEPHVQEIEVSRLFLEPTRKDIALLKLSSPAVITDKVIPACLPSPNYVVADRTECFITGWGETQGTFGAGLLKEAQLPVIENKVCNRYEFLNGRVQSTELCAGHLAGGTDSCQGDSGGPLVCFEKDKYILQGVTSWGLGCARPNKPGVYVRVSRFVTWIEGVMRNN

Kd (plasmin kringle domain): 40 nM
Ki (human plasmin [2]): 0.05 nM
Ki (plasma kallikrein [3]): > 20000 nM
Ki (human plasmin [4]): 0.15 nM
Ki (human plasmin [5]): 0.14 nM
Ki (human plasmin [6]): 0.13 nM
Ki (human plasmin [7]): 0.14 nM
Ki (human plasmin [8]): 0.14 nM
Ki (human plasmin [9]): 0.13 nM
Ki (human plasmin [10]): 0.15 nM
Ki (human plasmin [11]): 0.14 nM
Ki (human plasmin [12]): 0.15 nM
Ki (human plasmin [13]): 0.14 nM
Ki (human plasmin [14]): 0.15 nM
Ki (human plasmin [15]): 0.15 nM
Ki (human plasmin [16]): 0.15 nM
Ki (human plasmin [17]): 0.14 nM
Ki (human plasmin [18]): 0.15 nM
Ki (human plasmin [19]): 0.15 nM
Ki (human plasmin [20]): 0.14 nM
Ki (human plasmin [21]): 0.15 nM
Ki (human plasmin [22]): 0.14 nM
Ki (human plasmin [23]): 0.14 nM
Ki (human plasmin [24]): 0.15 nM
Ki (human plasmin [25]): 0.15 nM
fold weaker inhibition than the Y11T/L17R double mutant (plasma kallikrein [26]): ≥ 10 fold
fold weaker inhibition than the Y11T/L17R double mutant (factor XIa): ≥ 10 fold
fold weaker inhibition than the Y11T/L17R double mutant [27]: ≥ 10 fold
IC50 (read off the curve) (human plasmin [28]): ~1 nM
B1: KD1Y11T/R15K/L17R-KT (designed binder)
chain: NAEICLLPLDTGPCKARLLRYYYDRYTQSCRQFLYGGCEGNANNFYTWEACDDACWRIEK
modifications: ends and bridges not checked; cysteine pairing not given here
notes: also called KD1TM; rHuKD1-TM
TEG G, 2 nM tPA + 2 µM KD1TM, whole blood (human plasmin [1]): 3530 dyn/cm^2
TEG G, 2 nM tPA + 4 µM KD1TM, whole blood (human plasmin [1]): 4010 dyn/cm^2
TEG LY30, 2 nM tPA + 2 µM KD1TM, whole blood (human plasmin [1]): 0.1%
TEG LY30, 2 nM tPA + 4 µM KD1TM, whole blood (human plasmin [1]): 0%
TEG LY60, 2 nM tPA + 2 µM KD1TM, whole blood (human plasmin [1]): 3.7%
TEG LY60, 2 nM tPA + 4 µM KD1TM, whole blood (human plasmin [1]): 1.7%
TEG MA, 2 nM tPA + 2 µM KD1TM, whole blood (human plasmin [1]): 41.4 mm
TEG MA, 2 nM tPA + 4 µM KD1TM, whole blood (human plasmin [1]): 44.5 mm
